Source: patent US20250136696A1 (HARBOUR BIOMED SHANGHAI, published 2025)
Blank lines part the entries; values can stand above or below the binder they belong to.

Columns and labels:
[1] = molecular target: T1, Human KIR3DL3 protein (Sino Biological, 16055-H08H) (human, UniProt Q8N743 26-322); assay: ELISA, coated KIR3DL3, biotinylated protein detected with StrepTactin-HRP
T1 construct: Coated on the ELISA plate
Experimental: After the liquid was discarded, the plate was washed 3 times with a PBS buffer, 200 μl of PBS blocking solution containing 1% BSA was added, and the plate was incubated for 1 hour at room temperature. The blocking solution was discarded, and the plate was washed 3 times with a PBS buffer. […] The antibodies to be tested were subjected to 3-fold concentration dilution from 100 nM, with a total of 8 gradient concentrations. 100 μl of the diluted antibody was added to each well, and the plate was incubated at 4° C. overnight.

[2] = molecular target: T2, biotinylated human B7-H7 protein (Acro Biosystems, B77-H82F5) (human, UniProt Q9UM44 23-344, biotinylated); assay: flow cytometry, blocking of biotinylated human B7-H7 binding to HEK-293/CD28H cells
T2 construct: Bought soluble protein; also called biotin-B7H7 protein
T2 sequence (looked up): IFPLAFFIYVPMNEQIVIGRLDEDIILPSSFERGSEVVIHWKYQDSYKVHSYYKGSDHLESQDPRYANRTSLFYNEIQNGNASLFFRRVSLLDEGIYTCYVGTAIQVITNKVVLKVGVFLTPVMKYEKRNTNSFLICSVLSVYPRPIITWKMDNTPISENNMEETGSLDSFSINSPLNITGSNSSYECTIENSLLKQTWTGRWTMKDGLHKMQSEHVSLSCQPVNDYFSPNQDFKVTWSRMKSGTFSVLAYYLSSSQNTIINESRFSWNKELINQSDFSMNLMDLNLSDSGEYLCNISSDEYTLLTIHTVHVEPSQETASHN
Experimental: This example was intended to study the in vitro blocking activity of human anti-B7-H7 antibodies against the binding of human B7-H7 to its receptor CD28H. […] The cells were adjusted to a cell density of 1×10⁶ cells/mL. […] The cells were incubated at 4° C. for 1 hour in the dark. […] The cells were rinsed twice by adding pre-chilled PBS containing 2% BSA at 100 μL/well, and were centrifuged at 500 g at 4° C. for 5 minutes, and the supernatant was discarded. A fluorescent secondary antibody (PE Streptavidin, BD, Cat #: 554061, 1:200) was added at 100 μL/well, and the cells were incubated at 4° C. for 30 minutes in the dark. The cells were washed twice by adding pre-chilled PBS at 200 μL/well, and centrifuged at 500 g at 4° C. for 5 minutes, and the supernatant was discarded. Finally, the cells were resuspended in pre-chilled PBS at 200 μL/well, and the fluorescence signal values were read using an ACEA Novocyte3000 flow cytometer. IC50 was calculated.

[3] = molecular target: T3, human B7-H7 on the cell surface (human, UniProt Q9UM44 23-414); assay: flow cytometry, HCC827 cells
T3 construct: whole, on cells; also called hB7-H7; hu B7-H7
T3 sequence (looked up): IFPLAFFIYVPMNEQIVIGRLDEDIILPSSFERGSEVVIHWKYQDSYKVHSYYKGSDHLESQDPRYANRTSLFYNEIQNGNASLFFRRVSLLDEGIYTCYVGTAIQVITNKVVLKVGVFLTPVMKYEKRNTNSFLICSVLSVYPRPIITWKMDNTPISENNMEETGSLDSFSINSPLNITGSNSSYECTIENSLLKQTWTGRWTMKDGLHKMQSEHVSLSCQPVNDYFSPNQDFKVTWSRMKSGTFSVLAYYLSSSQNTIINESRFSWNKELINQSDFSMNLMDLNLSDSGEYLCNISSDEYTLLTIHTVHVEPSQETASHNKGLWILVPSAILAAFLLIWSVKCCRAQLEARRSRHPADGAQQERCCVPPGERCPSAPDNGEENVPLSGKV
Experimental: This example was intended to study the in vitro activity of H2L2 monoclonal antibodies against human B7-H7 in binding to human/cynomolgus monkey B7-H7. Since homologous molecules of B7-H7 were not present in mice, the detection was not performed. […] The cells were adjusted to a cell density of 1×10⁶ cells/mL, respectively. The cells were seeded in a 96-well V-bottom plate (Corning, #3894) at 100 μL/well, and the antibody to be tested at 2× final concentration with 3-fold concentration gradient dilution was then added at 100 μL/well. The cells were incubated at 4° C. for 2 hours in the dark. After the incubation, the cells were rinsed twice by adding pre-chilled PBS containing 2% BSA at 100 μl/well, and centrifuged at 500 g at 4° C. for 5 minutes, and the supernatant was discarded. […] The cells were washed twice by adding pre-chilled PBS containing 2% BSA at 100 μL/well, and centrifuged at 500 g at 4° C. for 5 minutes, and the supernatant was discarded. Finally, the cells were resuspended in pre-chilled PBS containing 2% BSA at 200 μL/well, and the fluorescence signal values were read using an ACEA Novocyte3000 flow cytometer.

[4] = molecular target: T2, biotinylated human B7-H7 protein (Acro …); assay: BLI epitope competition on SA-captured biotinylated B7-H7; competitor (first antibody) PR003251
Experimental: (§1) Epitope competition experiments were performed on the anti-B7-H7 antibodies using the ForteBio Octet Red96e platform with the same experimental buffer as described above. […] After being equilibrated in a buffer for 120 s, the sensors were immersed in various antibodies diluted to 100 nM for 240 s, and the final signal of the antibody binding to B7-H7 was recorded as the 100% signal for that antibody. Second step, epitope competition experiment: B7-H7 was captured using SA sensors at a capture height of 0.25 nm. The sensors were immersed in a first antibody (concentration: 100 nM) for 240 s, then the SA sensors were immersed in a mixture of the first antibody and a second antibody (final concentration of both antibodies: 100 nM) for 240 s, and the difference in signals before and after immersing the sensors in the mixture of the two antibodies was recorded as the signal for that antibody as the second antibody. The inhibition rate was calculated by the following equation, […]

[5] = molecular target: T2, biotinylated human B7-H7 protein (Acro …); assay: flow cytometry, blocking of biotinylated human B7-H7 binding to CHO-K1/KIR3DL3 cells
From the text: This example was intended to study the in vitro blocking activity of human anti-B7-H7 antibodies against the binding of human B7-H7 to its receptor KIR3DL3. A CHO-K1 cell (CHO-K1/KIR3DL3, Harbour BioMed US, Inc.) overexpressing human KIR3DL3 was used in experiments at the cellular level where human B7-H7/human KIR3DL3 binding was blocked. Briefly, the CHO-K1/KIR3DL3 cells were digested and resuspended in PBS containing 2% BSA. The cells were adjusted to a cell density of 1×10⁶ cells/mL. […] The cells were incubated at 4° C. for 1 hour in the dark. […] The cells were rinsed twice by adding pre-chilled PBS containing 2% BSA at 100 μL/well, and were centrifuged at 500 g at 4° C. for 5 minutes, and the supernatant was discarded. A fluorescent secondary antibody (PE Streptavidin, BD, Cat #: 554061, 1:200) was added at 100 μL/well, and the cells were incubated at 4° C. for 30 minutes in the dark. The cells were washed twice by adding pre-chilled PBS at 200 µL/well, and centrifuged at 500 g at 4° C. for 5 minutes, and the supernatant was discarded. Finally, the cells were resuspended in pre-chilled PBS at 200 μL/well, and the fluorescence signal values were read using an ACEA Novocyte3000 flow cytometer. IC50 was calculated.

[6] = molecular target: T2, biotinylated human B7-H7 protein (Acro …); assay: BLI epitope competition on SA-captured biotinylated B7-H7; competitor (first antibody) PR003249
Experimental: as §1

[7] = molecular target: T4, human B7-H7 recombinant protein (human, UniProt Q9UM44 23-344); assay: BLI (Octet), antibody captured on AHC sensor, human B7-H7 in solution, 1:1 global fit
T4 construct: also called human B7-H7 protein
T4 sequence (looked up): T2 sequence (looked up)
Experimental: The binding kinetics between antigen and antibody was analyzed using an Octet Red 96e (Fortebio) molecular interaction analyzer by biolayer interferometry (BLI) technology.
For determining the affinity of antibodies for antigens, the rotary speed of the sensor was set at 1000 rpm. AHC sensors (Fortebio, #18-5060) placed in one column were first equilibrated in a test buffer for 10 minutes, and then used to capture the anti-B7-H7 antibodies at a capture height of 0.7 nm; and after being equilibrated in the buffer for 120 s, the AHC sensors bound to human B7-H7 (concentrations: 50-3.125 nM and 0 nM) with 2-fold gradient dilution for 180 s and dissociated for 300 s. The AHC sensors were finally regenerated by immersing in a 10 mM glycine-hydrochloric acid solution with pH 1.5 to elute the protein bound to the sensors.
For data analysis using Octet Data Analysis software (Fortebio, version 11.0), 0 nM well was used as the reference well, reference subtraction was performed, “1:1 Global fitting” method was selected for data fitting, the kinetic parameters of the binding of the antigen to the antigen-binding protein were calculated, and the kₒₙ (1/Ms) value, kdis (1/s) value and KD (M) value were obtained.

T1 sequence (Q8N743 26-322 limits assumed): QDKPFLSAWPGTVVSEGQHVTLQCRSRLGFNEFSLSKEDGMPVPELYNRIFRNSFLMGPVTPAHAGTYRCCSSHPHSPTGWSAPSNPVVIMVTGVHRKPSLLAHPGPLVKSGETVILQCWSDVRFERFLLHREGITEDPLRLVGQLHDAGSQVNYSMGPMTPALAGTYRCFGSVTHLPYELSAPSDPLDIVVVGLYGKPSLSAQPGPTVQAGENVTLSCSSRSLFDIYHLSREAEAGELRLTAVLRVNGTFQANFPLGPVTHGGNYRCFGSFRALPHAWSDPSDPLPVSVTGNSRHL

- binding result [1]: no binding (tested: 6 µg/ml)
B1: Biotin-B7H4 protein (Acro Biosystems, B74-H82E2) (ligand, UniProt Q7Z7D3 29-258, looked up)
chain: FGISGRHSITVTTVASAGNIGEDGILSCTFEPDIKLSDIVIQWLKEGVLGLVHEFKEGKDELSEQDEMFRGRTAVFADQVIVGNASLRLKNVQLTDAGTYKCYIITSKGKGNANLEYKTGAFSMPEVNVDYNASSETLRCEAPRWFPQPTVVWASQVDQGANFSEVSNTSFELNSENVTMKVVSVLYNVTINNTYSCMIENDIAKATGDIKVTESEIKRRSHLQLLNSKA
modifications: biotinylated
notes: also called negative control protein

- IC50 [2]: 71.7 nM
- EC50 [3]: 2.55 nM
- Maximum MFI [3]: 25100 MFI
- Competitive inhibition rate (%) [4]: 5.32%
- IC50 [5]: 10.4 nM
- Maximum inhibition rate (%) [5]: 96.7%
- Competitive inhibition rate (%) [6]: 77%
- Kd [7]: 26.3 nM
- koff [7]: 0.00205 s⁻¹
- kon [7]: 78100 M⁻¹ s⁻¹
B2: PR003181 (antibody, human IgG4 S228P, kappa)
heavy: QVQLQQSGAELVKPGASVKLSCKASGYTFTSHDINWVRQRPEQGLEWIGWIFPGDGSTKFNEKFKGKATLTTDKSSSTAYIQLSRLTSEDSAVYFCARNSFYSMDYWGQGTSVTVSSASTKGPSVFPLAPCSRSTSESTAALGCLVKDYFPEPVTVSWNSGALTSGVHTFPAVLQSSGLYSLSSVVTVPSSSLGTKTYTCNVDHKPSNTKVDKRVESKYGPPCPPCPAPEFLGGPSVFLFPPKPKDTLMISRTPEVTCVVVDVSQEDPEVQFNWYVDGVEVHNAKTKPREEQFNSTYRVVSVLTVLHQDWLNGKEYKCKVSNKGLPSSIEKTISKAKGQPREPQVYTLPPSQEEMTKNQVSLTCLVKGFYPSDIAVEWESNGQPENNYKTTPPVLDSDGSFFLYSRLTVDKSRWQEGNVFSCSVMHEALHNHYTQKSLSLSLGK
light: DIVMSQSPSSLAVSAGEKVTMSCKSSQSLLNSRTRKNQLAWYQQKPGQSPKLLIYWASTRESGVPDRFTGSGSGTDFTLTISSVQAEDLAVYYCKQSYNLRTFGGGTKLEIKRTVAAPSVFIFPPSDEQLKSGTASVVCLLNNFYPREAKVQWKVDNALQSGNSQESVTEQDSKDSTYSLSSTLTLSKADYEKHKVYACEVTHQGLSSPVTKSFNRGEC
notes: also called Control antibody 1; positive control
